Changes are numbered by the printed parent chain.
B1: V0050 (antibody, V domains shown)
VH: EVQLQQSGPELVKPGASVKIPCRASGYTFTDYNMDWVKQSHGKTLEWIGDINPNNGGTIYNQKFKGKATLTVDKSSSTAYMELRSLTSEDTAVYYCARGRGMGYYALDYWGQGTSVTVSS
VL: DIQMTQSPASLSASVGETVTFTCGASENVYGALNWYQRKQGKSPQLLIYGATNLADGMSSRFSGSGSGRQYSLKISSLHPDDVATYYCQNVLTIPWTFGGGAKLEIK
B2: V0027 (antibody, V domains shown)
VH: QVQLQQSGPELVKPGASVKISCKASGYTFTEYYLNWMKQRPGQGLEWIGWIFPGRGSTNYNEKFKGKATLTVDKSSSTAYMLLSSLTSEDSAVYFCARPTIVARDYAMDYWGQGTSVTVSS
VL: DVLMTQTPLSLPVSLGDQASISCRSSQSIVHRNGNTYLEWYLQKPGQSPKLLIYKVSNRFSGVPDRFSGSGSGTDFTLKISRVEAEDLGVYYCFQGSHVPFTFGSGTKLEIK
B3: V0032 (antibody, V domains shown)
VH: QVQLKQSGAELVRPGASVKLSCKTSGYTFTDYYIKWVKQRPGQGLEWIARIYPGSGNTYYNEKFKGKATLTAEKSSSTAYMQLSSLTSEDSAVYFCARPAYYSKDYAMEYWGQGTSVTVSS
VL: B2 VL with H31Y, R32T, F101Y, S105G
B4: V0031 (antibody, V domains shown)
VH: QVQLQQPGTELVKPGASVKLSCKASGYTFTSYWMHWVKQRPGQGLEWIGNIYPSNGGTYYNEKFKSKATLTVDKSSSTAYMQLSSLTSEDSAVYYCARSSVVGRDYAMDYWGQGTSVTVSS
VL: B2 VL with S22A, R32S, K50E, F101Y, S105G
B5: V0052 (antibody, V domains shown)
VH: not shown
VL: SIVMTQTPKFLLVSAGDRVTITCKASQSVSNDVAWYQQKPGQSPKLLIYYASNRCTGVPDRFTGSGYGTDFTFTISTVQAEDLAVYFCQQDYRSPLTFGAGTKLELK
B6: V0004 (antibody, V domains shown)
VH: QVQLQQPGAELVKPGASVKLSCKASDYTFTNYWMHWVKQRPGRGLEWIGRIDPNSGGTRYNEKFKNKATLTVDKPSSTAYMHLSSLTSEDSAVYYCAGDFDVWGTGTTVTVSS
VL: DIQMTQSPASLSASVGETVTITCRASGNIHNYLAWYQQRQGKSPQLLVYNAKTLPDGVPSRFSGSGSGTQYSLKINSLQPEDFGSYCCQHFWSTPLTFGAGTKLELK
B7: V0021 (antibody, V domains shown)
VH: QVQLQQPGIELVKTGASVKLSCKASGYTFTSNWMHWLKQRPGQGLEWIGNINPNNSETNYNEKFRKKATLTVDKSSSAAYMQLISLTSEDSAVYYCARANYYGGSQFAYWGQGTLVTVSA
VL: DVVMTQTPLSLCVSLGDQASISCRSSQSLVHSNGKTYLHWYLQKPGQSPNLLIYKVSNRFSGVPDRFSGSGSGTDFTLKISRVEAEDLGVYFCSQSTHVPFTFGSGTKLEIK
B8: V0020 (antibody, V domains shown)
VH: B7 VH with I9T, E10D, T14P, N32Y, E57D, T58A, R65K, K66S
VL: B7 VL with M4V, C12P
B9: V0058 (antibody, V domains shown)
VH: not shown
VL: DIVMTQSPSSLSVSAGEKVTMSCKSSQSLLSSGNQKNYLAWYQQKPGQPPKLLIYGASTRESGVPDRFTGSGSGTDFTLTISSVQAEDLAVYYCQNDHSHPYTFGGGTKLEIK
B10: V0057 (antibody, V domains shown)
VH: not shown
VL: B9 VL with S31N
B11: V0055 (antibody, V domains shown)
VH: not shown
VL: B9 VL with S31N
B12: V0054 (antibody, V domains shown)
VH: not shown
VL: B9 VL with S31N, A57T
B13: V0024 (antibody, V domains shown)
VH: QVQLQQPGTELVKPGASVKLSCKASGYTFTRFWMHWVKQRPGQGLEWIGNINPNNGGTDNNERFKSKATLTVDRSSSTAYMQLSSLTSEDSAVYYCARGTGTGAMDYWGQGTSVTVSS
VL: DVVMTQTPLSLPVSLGDQASISCRSSQSLVHSNGNTHLYWYLQKPGQSPKLLIYRVSSRFSGVPDRFSGSGSGTDFTLKISRVEAEDLGVYFCFQGTHVPRTFGGGTKLEIK
B14: V0026 (antibody, V domains shown)
VH: B2 VH with T28S, E31D, L34I, M37V, R55S, G56D, N59Y, Y80S, I101V
VL: B2 VL with H31Y, R32S, F101Y, S105G
B15: V0022 (antibody, V domains shown)
VH: QVQLQQPGTELVKPGSSVNLSCKASGFTFTRYWMHWVKERPGHGLEWIGNINPNNGGTDFNEKFKNKATLTVHKSSTTVFIQLSSLTSEDSAVYYCARGTGTGAMDYWGQGTSVTVSS
VL: B13 VL with S32N, N35I, H37Y, S58N, S68G
B16: V0023 (antibody, V domains shown)
VH: B13 VH with R31I, Q43H, N50K, T58G, N60Y, R63K, R74K, S77T, M81L
VL: B13 VL with Q18H, N35I, K44R, S48T, S58N, R82S, K112E
B17: V00016 (antibody, V domains shown)
VH: EVQLQQSGAELVKPGASVKLSCTASGFNIKDYYIHWVKQRTEQGLEWIGRIDPEDGETKYAPKFQGKATIAADTSSNTAYLHLNSLTSEDTAVYYCAREFSYAMDYWGQGTSVTVSS
VL: NIMMTQSPSSLAVSAGEKVTMSCKSSQSVLYSSNQKNYLAWYQQKPGQSPKLLIYWASTRESGVPDRFTGSGSGTDFTLTISSVQAEDLAVYYCHQYLSSRTFGGGTKLEIK

What follows are binders tested against wild type tau (Homo sapiens (Human)), P10636 (assay: Octet). Details: remark: other sources report otherwise.

Row | Binder | Kd
1 | B1 | > 200 nM
2 | B2 | > 200 nM
3 | B3 | > 200 nM
4 | B4 | > 200 nM
5 | B5 | > 200 nM
6 | B6 | > 200 nM
7 | B7 | > 200 nM
8 | B8 | > 200 nM
9 | B9 | > 200 nM
10 | B10 | > 200 nM
11 | B11 | > 200 nM
12 | B12 | > 200 nM
13 | B13 | > 200 nM
14 | B14 | > 200 nM
15 | B15 | > 200 nM
16 | B16 | > 200 nM

The binders below were run against T1, enriched paired helical filament tau protein (ePHF) (human) (assay: follow up analysis, method not stated). Details: remark: other sources report otherwise.

Row | Binder | selectivity for ePHF over wild type tau
17 | B13 | > 100 fold

Each binder was assayed against iPHF (Homo sapiens (Human)), P10636 (assay: Octet, antibody on biosensor tips). Details: remark: other sources report otherwise.

Row | Binder | Kd
18 | B17 | 5.5 nM
19 | B13 | 2.8 nM

What follows are binders tested against T1, enriched paired helical filament tau … (assay: direct ELISA). Details: remark: other sources report otherwise.

Row | Binder | EC50
20 | B13 | 0.125 nM
